Series [1] has as its target T1, human corin variant Q568P, Q9Y5Q5.
T1 chain: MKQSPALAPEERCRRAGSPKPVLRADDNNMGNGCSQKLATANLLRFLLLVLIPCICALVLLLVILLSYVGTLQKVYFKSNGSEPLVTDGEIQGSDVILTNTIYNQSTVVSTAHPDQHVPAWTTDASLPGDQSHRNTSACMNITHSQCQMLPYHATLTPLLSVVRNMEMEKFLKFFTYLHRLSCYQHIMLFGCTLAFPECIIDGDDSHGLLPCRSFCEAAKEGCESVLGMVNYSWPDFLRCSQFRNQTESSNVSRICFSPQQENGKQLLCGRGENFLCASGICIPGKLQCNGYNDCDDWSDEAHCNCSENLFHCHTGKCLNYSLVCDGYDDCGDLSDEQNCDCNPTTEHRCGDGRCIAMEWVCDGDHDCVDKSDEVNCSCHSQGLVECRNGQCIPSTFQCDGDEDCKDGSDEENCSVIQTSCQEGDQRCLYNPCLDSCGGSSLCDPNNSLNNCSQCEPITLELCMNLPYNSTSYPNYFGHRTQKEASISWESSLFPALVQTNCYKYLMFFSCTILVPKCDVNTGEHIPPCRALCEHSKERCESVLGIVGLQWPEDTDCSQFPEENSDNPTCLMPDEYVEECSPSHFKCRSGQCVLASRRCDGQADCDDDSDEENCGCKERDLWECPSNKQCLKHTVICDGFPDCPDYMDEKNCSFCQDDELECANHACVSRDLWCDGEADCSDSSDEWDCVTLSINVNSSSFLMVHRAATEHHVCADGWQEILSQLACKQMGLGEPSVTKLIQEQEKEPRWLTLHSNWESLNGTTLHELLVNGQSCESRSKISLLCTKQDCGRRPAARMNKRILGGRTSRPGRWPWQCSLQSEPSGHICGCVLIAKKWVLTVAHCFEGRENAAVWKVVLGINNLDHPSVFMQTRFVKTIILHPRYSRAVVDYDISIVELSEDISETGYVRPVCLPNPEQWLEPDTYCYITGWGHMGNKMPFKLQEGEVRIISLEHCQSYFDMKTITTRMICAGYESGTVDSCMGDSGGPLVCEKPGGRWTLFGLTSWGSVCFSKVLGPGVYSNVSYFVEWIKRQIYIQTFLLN

The target in series [2] is T2, recombinant human corin wild-type (WT), Q9Y5Q5.
T2 chain: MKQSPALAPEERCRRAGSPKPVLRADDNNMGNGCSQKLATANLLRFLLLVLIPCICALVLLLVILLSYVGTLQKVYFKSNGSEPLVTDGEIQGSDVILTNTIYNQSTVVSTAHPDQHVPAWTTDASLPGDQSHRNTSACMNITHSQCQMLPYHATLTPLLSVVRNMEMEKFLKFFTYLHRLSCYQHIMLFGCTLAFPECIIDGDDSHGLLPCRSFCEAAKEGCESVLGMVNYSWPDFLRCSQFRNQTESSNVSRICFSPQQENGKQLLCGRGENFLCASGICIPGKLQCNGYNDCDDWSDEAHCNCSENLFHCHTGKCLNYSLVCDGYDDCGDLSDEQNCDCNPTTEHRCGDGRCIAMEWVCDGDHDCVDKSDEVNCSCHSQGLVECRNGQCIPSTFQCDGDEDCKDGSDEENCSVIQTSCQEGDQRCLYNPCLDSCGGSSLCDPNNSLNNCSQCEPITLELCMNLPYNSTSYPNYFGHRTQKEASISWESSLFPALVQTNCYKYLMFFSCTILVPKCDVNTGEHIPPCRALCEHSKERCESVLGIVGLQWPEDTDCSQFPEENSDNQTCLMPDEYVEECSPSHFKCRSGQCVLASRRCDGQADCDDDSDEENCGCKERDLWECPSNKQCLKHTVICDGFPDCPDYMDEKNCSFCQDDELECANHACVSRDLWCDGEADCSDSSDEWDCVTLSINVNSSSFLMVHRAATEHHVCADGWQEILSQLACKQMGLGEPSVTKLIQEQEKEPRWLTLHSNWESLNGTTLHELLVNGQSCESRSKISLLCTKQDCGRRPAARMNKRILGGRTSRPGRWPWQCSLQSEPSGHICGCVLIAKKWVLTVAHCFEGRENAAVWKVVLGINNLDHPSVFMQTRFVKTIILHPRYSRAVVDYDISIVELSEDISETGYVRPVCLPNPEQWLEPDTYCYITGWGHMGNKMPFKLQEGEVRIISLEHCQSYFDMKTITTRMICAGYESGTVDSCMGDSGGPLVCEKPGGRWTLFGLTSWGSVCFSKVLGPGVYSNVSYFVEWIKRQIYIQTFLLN

The target in series [3] is T3, human corin variant T555I/Q568P, Q9Y5Q5.
T3 chain: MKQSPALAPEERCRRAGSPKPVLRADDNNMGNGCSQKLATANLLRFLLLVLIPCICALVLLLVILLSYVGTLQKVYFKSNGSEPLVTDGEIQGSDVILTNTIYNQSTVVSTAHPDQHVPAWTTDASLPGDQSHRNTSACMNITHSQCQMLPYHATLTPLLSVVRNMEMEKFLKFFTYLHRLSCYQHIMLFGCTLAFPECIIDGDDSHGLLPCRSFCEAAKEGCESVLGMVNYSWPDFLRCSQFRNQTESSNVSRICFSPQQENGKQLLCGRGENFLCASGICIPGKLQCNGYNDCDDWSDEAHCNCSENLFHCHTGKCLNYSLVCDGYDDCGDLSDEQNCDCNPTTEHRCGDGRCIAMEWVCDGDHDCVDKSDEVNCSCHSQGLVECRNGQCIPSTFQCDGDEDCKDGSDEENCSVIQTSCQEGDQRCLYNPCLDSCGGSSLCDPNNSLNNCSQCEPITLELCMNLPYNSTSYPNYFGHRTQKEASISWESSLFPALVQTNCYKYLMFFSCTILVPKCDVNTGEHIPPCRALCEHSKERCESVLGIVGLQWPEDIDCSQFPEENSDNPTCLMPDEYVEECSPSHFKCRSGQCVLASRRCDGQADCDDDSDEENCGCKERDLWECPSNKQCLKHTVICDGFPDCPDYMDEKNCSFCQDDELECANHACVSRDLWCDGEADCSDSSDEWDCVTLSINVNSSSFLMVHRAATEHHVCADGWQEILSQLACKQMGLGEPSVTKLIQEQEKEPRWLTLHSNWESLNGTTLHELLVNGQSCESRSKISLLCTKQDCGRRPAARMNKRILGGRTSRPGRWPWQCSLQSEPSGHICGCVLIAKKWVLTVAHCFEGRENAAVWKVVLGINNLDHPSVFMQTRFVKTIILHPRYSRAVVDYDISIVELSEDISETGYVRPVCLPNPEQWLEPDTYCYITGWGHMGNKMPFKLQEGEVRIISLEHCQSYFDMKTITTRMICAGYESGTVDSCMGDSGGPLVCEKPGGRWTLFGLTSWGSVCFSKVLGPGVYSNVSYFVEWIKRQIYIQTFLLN

B1: recombinant human proprotein convertase subtilisin/kexin-6 (PCSK6) with a C-terminal flag tag (protein)
chain: QVRSDPQALYFNDPIWSNMWYLHCGDKNSRCRSEMNVQAAWKRGYTGKNVVVTILDDGIERNHPDLAPNYDSYASYDVNGNDYDPSPRYDASNENKHGTRCAGEVAASANNSYCIVGIAYNAKIGGIRMLDGDVTDVVEAKSLGIRPNYIDIYSASWGPDDDGKTVDGPGRLAKQAFEYGIKKGRQGLGSIFVWASGNGGREGDYCSCDGYTNSIYTISVSSATENGYKPWYLEECASTLATTYSSGAFYERKIVTTDLRQRCTDGHTGTSVSAPMVAGIIALALEANSQLTWRDVQHLLVKTSRPAHLKASDWKVNGAGHKVSHFYGFGLVDAEALVVEAKKWTAVPSQHMCVAASDKRPRSIPLVQVLRTTALTSACAEHSDQRVVYLEHVVVRTSISHPRRGDLQIYLVSPSGTKSQLLAKRLLDLSNEGFTNWEFMTVHCWGEKAEGQWTLEIQDLPSQVRNPEKQGKLKEWSLILYGTAEHPYHTFSAHQSRSRMLELSAPELEPPKAALSPSQVEVPEDEEDYTAQSTPGSANILQTSVCHPECGDKGCDGPNADQCLNCVHFSLGSVKTSRKCVSVCPLGYFGDTAARRCRRCHKGCETCSSRAATQCLSCRRGFYHHQEMNTCVTLCPAGFYADESQKNCLKCHPSCKKCVDEPEKCTVCKEGFSLARGSCIPDCEPGTYFDSELIRCGECHHTCGTCVGPGREECIHCAKNFHFHDWKCVPACGEGFYPEEMPGLPHKVCRRCDENCLSCAGSSRNCSRCKTGFTQLGTSCITNHTCSNADETFCEMVKSNRLCERKLFIQFCCRTCLLAG
As for B1, the “PCSK6-mediated activation cleavage (Western blot, densitometry)” value was “PCSK6-mediated activation cleavage was detected in corin WT and variants T555I or Q568P, but not variant T555I/Q568P” in series [1]; “PCSK6-mediated activation cleavage was detected in corin WT and variants T555I or Q568P, but not variant T555I/Q568P” in series [2]; “PCSK6-mediated activation cleavage was detected in corin WT and variants T555I or Q568P, but not variant T555I/Q568P” in series [3].

These data come from US20160058848A1.
